Experimental data from the supplement of paper PMC11811203.

B1: THAP1; numbered along this chain (parent)
chain: MVQSCSAYGCKNRYDKDKPVSFHKFPLTRPSLCKEWEAAVRRKNFKPTKYSSICSEHFTPDCFKRECNNKLLKENAVPTIFLCTEPHDKKEDLLEPQEQLPPPPLPPPVSQVDAAIGLLMPPLQTPVNLSVFCDHNYTVEDTMHQRKRIHQLEQQVEKLRKKLKTAQQRCRRQERQLEKLKEVVHFQKEKDDVSERGYVILPNDYFEIVEVPA

Variants of: B1
Assay: THAP1 transcriptional activity (GFP+/GFP- enrichment relative to wild-type constructs) (ratio to WT); higher = more THAP1 activity (PSMB5 reporter activation)
Details: with PSMB5 promoter-GFP reporter
Method: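 Deep mutational scan of human THAP1. Site-saturation single amino acid variant library (residues 2-213) was expressed by lentivirus at MOI ~0.3 in THAP1-knockout HEK-293T cells carrying an endogenous PSMB5 promoter-GFP knock-in reporter. Five days post-transduction, BFP+ cells were FACS-sorted into GFP dim and GFP bright populations and variants were counted by Illumina sequencing. Activity is the GFP-bright/GFP-dim read fold change, mean of 2 replicates, divided by the mean fold change of wild-type (synonymous) constructs in the same screen pool; WT = 1.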

Q: Which THAP1 transcriptional activity does the source give for MQQSCSAYGCKNRYDKDKPVSFHKFPLTRPSLCKEWEAAVRRKNFKPTKYSSICSEHFTPDCFKRECNNKLLKENAVPTIFLCTEPHDKKEDLLEPQEQLPPPPLPPPVSQVDAAIGLLMPPLQTPVNLSVFCDHNYTVEDTMHQRKRIHQLEQQVEKLRKKLKTAQQRCRRQERQLEKLKEVVHFQKEKDDVSERGYVILPNDYFEIVEVPA [V2Q] here?
A: The THAP1 transcriptional activity was 0.178.

Q: Which THAP1 transcriptional activity does the source give for MDQSCSAYGCKNRYDKDKPVSFHKFPLTRPSLCKEWEAAVRRKNFKPTKYSSICSEHFTPDCFKRECNNKLLKENAVPTIFLCTEPHDKKEDLLEPQEQLPPPPLPPPVSQVDAAIGLLMPPLQTPVNLSVFCDHNYTVEDTMHQRKRIHQLEQQVEKLRKKLKTAQQRCRRQERQLEKLKEVVHFQKEKDDVSERGYVILPNDYFEIVEVPA [V2D] here?
A: The THAP1 transcriptional activity was 0.178.

Q: MNQSCSAYGCKNRYDKDKPVSFHKFPLTRPSLCKEWEAAVRRKNFKPTKYSSICSEHFTPDCFKRECNNKLLKENAVPTIFLCTEPHDKKEDLLEPQEQLPPPPLPPPVSQVDAAIGLLMPPLQTPVNLSVFCDHNYTVEDTMHQRKRIHQLEQQVEKLRKKLKTAQQRCRRQERQLEKLKEVVHFQKEKDDVSERGYVILPNDYFEIVEVPA [V2N] was tested. Which THAP1 transcriptional activity did it give?
A: The THAP1 transcriptional activity was 0.157.

Q: With MHQSCSAYGCKNRYDKDKPVSFHKFPLTRPSLCKEWEAAVRRKNFKPTKYSSICSEHFTPDCFKRECNNKLLKENAVPTIFLCTEPHDKKEDLLEPQEQLPPPPLPPPVSQVDAAIGLLMPPLQTPVNLSVFCDHNYTVEDTMHQRKRIHQLEQQVEKLRKKLKTAQQRCRRQERQLEKLKEVVHFQKEKDDVSERGYVILPNDYFEIVEVPA [V2H] as the variant, how does the THAP1 transcriptional activity read?
A: Its THAP1 transcriptional activity is 0.247.

Q: With MLQSCSAYGCKNRYDKDKPVSFHKFPLTRPSLCKEWEAAVRRKNFKPTKYSSICSEHFTPDCFKRECNNKLLKENAVPTIFLCTEPHDKKEDLLEPQEQLPPPPLPPPVSQVDAAIGLLMPPLQTPVNLSVFCDHNYTVEDTMHQRKRIHQLEQQVEKLRKKLKTAQQRCRRQERQLEKLKEVVHFQKEKDDVSERGYVILPNDYFEIVEVPA [V2L] as the variant, how does the THAP1 transcriptional activity read?
A: Its THAP1 transcriptional activity is 0.214.

Q: MIQSCSAYGCKNRYDKDKPVSFHKFPLTRPSLCKEWEAAVRRKNFKPTKYSSICSEHFTPDCFKRECNNKLLKENAVPTIFLCTEPHDKKEDLLEPQEQLPPPPLPPPVSQVDAAIGLLMPPLQTPVNLSVFCDHNYTVEDTMHQRKRIHQLEQQVEKLRKKLKTAQQRCRRQERQLEKLKEVVHFQKEKDDVSERGYVILPNDYFEIVEVPA [V2I] was tested. Which THAP1 transcriptional activity did it give?
A: The THAP1 transcriptional activity was 0.157.

Q: How did the THAP1 transcriptional activity turn out when MFQSCSAYGCKNRYDKDKPVSFHKFPLTRPSLCKEWEAAVRRKNFKPTKYSSICSEHFTPDCFKRECNNKLLKENAVPTIFLCTEPHDKKEDLLEPQEQLPPPPLPPPVSQVDAAIGLLMPPLQTPVNLSVFCDHNYTVEDTMHQRKRIHQLEQQVEKLRKKLKTAQQRCRRQERQLEKLKEVVHFQKEKDDVSERGYVILPNDYFEIVEVPA [V2F] was run?
A: Its THAP1 transcriptional activity is 0.161.

Q: With MRQSCSAYGCKNRYDKDKPVSFHKFPLTRPSLCKEWEAAVRRKNFKPTKYSSICSEHFTPDCFKRECNNKLLKENAVPTIFLCTEPHDKKEDLLEPQEQLPPPPLPPPVSQVDAAIGLLMPPLQTPVNLSVFCDHNYTVEDTMHQRKRIHQLEQQVEKLRKKLKTAQQRCRRQERQLEKLKEVVHFQKEKDDVSERGYVILPNDYFEIVEVPA [V2R] as the variant, how does the THAP1 transcriptional activity read?
A: Its THAP1 transcriptional activity is 0.122.

Q: Which THAP1 transcriptional activity does the source give for MPQSCSAYGCKNRYDKDKPVSFHKFPLTRPSLCKEWEAAVRRKNFKPTKYSSICSEHFTPDCFKRECNNKLLKENAVPTIFLCTEPHDKKEDLLEPQEQLPPPPLPPPVSQVDAAIGLLMPPLQTPVNLSVFCDHNYTVEDTMHQRKRIHQLEQQVEKLRKKLKTAQQRCRRQERQLEKLKEVVHFQKEKDDVSERGYVILPNDYFEIVEVPA [V2P] here?
A: The THAP1 transcriptional activity was 0.71.

Q: How did the THAP1 transcriptional activity turn out when MCQSCSAYGCKNRYDKDKPVSFHKFPLTRPSLCKEWEAAVRRKNFKPTKYSSICSEHFTPDCFKRECNNKLLKENAVPTIFLCTEPHDKKEDLLEPQEQLPPPPLPPPVSQVDAAIGLLMPPLQTPVNLSVFCDHNYTVEDTMHQRKRIHQLEQQVEKLRKKLKTAQQRCRRQERQLEKLKEVVHFQKEKDDVSERGYVILPNDYFEIVEVPA [V2C] was run?
A: The THAP1 transcriptional activity was 0.162.

Q: Which THAP1 transcriptional activity does the source give for MKQSCSAYGCKNRYDKDKPVSFHKFPLTRPSLCKEWEAAVRRKNFKPTKYSSICSEHFTPDCFKRECNNKLLKENAVPTIFLCTEPHDKKEDLLEPQEQLPPPPLPPPVSQVDAAIGLLMPPLQTPVNLSVFCDHNYTVEDTMHQRKRIHQLEQQVEKLRKKLKTAQQRCRRQERQLEKLKEVVHFQKEKDDVSERGYVILPNDYFEIVEVPA [V2K] here?
A: Its THAP1 transcriptional activity is 0.0614.

Q: How did the THAP1 transcriptional activity turn out when MGQSCSAYGCKNRYDKDKPVSFHKFPLTRPSLCKEWEAAVRRKNFKPTKYSSICSEHFTPDCFKRECNNKLLKENAVPTIFLCTEPHDKKEDLLEPQEQLPPPPLPPPVSQVDAAIGLLMPPLQTPVNLSVFCDHNYTVEDTMHQRKRIHQLEQQVEKLRKKLKTAQQRCRRQERQLEKLKEVVHFQKEKDDVSERGYVILPNDYFEIVEVPA [V2G] was run?
A: The THAP1 transcriptional activity was 0.0831.

Q: How did the THAP1 transcriptional activity turn out when MMQSCSAYGCKNRYDKDKPVSFHKFPLTRPSLCKEWEAAVRRKNFKPTKYSSICSEHFTPDCFKRECNNKLLKENAVPTIFLCTEPHDKKEDLLEPQEQLPPPPLPPPVSQVDAAIGLLMPPLQTPVNLSVFCDHNYTVEDTMHQRKRIHQLEQQVEKLRKKLKTAQQRCRRQERQLEKLKEVVHFQKEKDDVSERGYVILPNDYFEIVEVPA [V2M] was run?
A: The THAP1 transcriptional activity was 0.183.

Q: How did the THAP1 transcriptional activity turn out when MEQSCSAYGCKNRYDKDKPVSFHKFPLTRPSLCKEWEAAVRRKNFKPTKYSSICSEHFTPDCFKRECNNKLLKENAVPTIFLCTEPHDKKEDLLEPQEQLPPPPLPPPVSQVDAAIGLLMPPLQTPVNLSVFCDHNYTVEDTMHQRKRIHQLEQQVEKLRKKLKTAQQRCRRQERQLEKLKEVVHFQKEKDDVSERGYVILPNDYFEIVEVPA [V2E] was run?
A: Its THAP1 transcriptional activity is 0.154.
